# Measured values taken from paper PMC11257196.
# Molecular target: human serum albumin (human) (UniProt P02768)
# Experiment: ultrafiltration
substance,measurement,value
interleukin-1 receptor antagonist in fusion to albumin binding domain (IL-1Ra-ABD) (from UniProt P18510 26-177),percent bound,78%
same,percent released from HSA in the first 50 h,80%
